Measurements published in patent US20100286367.

Biological target: T1, purified human Lys77-Plasminogen, P00747
T1 chain: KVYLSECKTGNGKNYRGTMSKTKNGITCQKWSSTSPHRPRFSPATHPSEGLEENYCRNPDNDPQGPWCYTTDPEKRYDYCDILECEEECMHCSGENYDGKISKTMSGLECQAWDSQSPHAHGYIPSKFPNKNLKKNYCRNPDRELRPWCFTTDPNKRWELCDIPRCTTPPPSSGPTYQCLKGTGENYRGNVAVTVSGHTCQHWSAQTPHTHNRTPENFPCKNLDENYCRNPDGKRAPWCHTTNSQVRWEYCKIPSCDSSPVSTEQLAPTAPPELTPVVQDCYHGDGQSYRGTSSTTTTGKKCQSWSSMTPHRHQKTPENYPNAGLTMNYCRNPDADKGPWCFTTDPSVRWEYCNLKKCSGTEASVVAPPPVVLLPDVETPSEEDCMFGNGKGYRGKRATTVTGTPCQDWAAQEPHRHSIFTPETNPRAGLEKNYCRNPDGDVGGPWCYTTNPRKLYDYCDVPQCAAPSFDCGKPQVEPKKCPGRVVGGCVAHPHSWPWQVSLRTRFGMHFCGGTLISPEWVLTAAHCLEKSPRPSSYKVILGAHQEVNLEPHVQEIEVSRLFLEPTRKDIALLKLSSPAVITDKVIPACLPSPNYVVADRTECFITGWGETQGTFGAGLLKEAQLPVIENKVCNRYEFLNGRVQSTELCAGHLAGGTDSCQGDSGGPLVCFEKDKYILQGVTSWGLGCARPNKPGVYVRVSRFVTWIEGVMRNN

B1: thiolated streptokinase (protein)
chain: IAGPEWLLDRPSVNNSQLVVSVAGTVEGTNQDISLKFFEIDLTSRPAHGGKTEQGLSPKSKPFATDSGAMSHKLEKADLLKAIQEQLIANVHSNDDYFEVIDFASDATITDRNGKVYFADKDGSVTLPTQPVQEFLLSGHVRVRPYKEKPIQNQAKSVDVEYTVQFTPLNPDDDFRPGLKDTKLLKTLAIGDTITSQELLAQAQSILNKNHPGYTIYERDSSIVTHDNDIFRTILPMDQEFTYRVKNREQAYRINKKSGLNEEINNTDLISEKYYVLKKGEKPYDPFDRSHLKLFTIKYVDVDTNELLKSEQLLTASERNLDFRDLYDPRDKAKLLYNNLDAFGIMDYTLTGKVEDNHDDTNRIITVYMGKRPEGENASYHLAYDKDRYTEEEREVYSYLRYTGTPIPDNPNDK
  plasmin generated in the plasminogen activation assay (S-2251 amidolysis, SU/ml): thiolated SK (1 nM) generated plasmin at a nearly linear of 4225 SU/mL
